From article PMC7440162 (Cell, 2020)

Legend:
[1] = target: T1, PTPRF ECD-Fc (human, UniProt P10586 30-1263); experiment: SPR
T1 sequence: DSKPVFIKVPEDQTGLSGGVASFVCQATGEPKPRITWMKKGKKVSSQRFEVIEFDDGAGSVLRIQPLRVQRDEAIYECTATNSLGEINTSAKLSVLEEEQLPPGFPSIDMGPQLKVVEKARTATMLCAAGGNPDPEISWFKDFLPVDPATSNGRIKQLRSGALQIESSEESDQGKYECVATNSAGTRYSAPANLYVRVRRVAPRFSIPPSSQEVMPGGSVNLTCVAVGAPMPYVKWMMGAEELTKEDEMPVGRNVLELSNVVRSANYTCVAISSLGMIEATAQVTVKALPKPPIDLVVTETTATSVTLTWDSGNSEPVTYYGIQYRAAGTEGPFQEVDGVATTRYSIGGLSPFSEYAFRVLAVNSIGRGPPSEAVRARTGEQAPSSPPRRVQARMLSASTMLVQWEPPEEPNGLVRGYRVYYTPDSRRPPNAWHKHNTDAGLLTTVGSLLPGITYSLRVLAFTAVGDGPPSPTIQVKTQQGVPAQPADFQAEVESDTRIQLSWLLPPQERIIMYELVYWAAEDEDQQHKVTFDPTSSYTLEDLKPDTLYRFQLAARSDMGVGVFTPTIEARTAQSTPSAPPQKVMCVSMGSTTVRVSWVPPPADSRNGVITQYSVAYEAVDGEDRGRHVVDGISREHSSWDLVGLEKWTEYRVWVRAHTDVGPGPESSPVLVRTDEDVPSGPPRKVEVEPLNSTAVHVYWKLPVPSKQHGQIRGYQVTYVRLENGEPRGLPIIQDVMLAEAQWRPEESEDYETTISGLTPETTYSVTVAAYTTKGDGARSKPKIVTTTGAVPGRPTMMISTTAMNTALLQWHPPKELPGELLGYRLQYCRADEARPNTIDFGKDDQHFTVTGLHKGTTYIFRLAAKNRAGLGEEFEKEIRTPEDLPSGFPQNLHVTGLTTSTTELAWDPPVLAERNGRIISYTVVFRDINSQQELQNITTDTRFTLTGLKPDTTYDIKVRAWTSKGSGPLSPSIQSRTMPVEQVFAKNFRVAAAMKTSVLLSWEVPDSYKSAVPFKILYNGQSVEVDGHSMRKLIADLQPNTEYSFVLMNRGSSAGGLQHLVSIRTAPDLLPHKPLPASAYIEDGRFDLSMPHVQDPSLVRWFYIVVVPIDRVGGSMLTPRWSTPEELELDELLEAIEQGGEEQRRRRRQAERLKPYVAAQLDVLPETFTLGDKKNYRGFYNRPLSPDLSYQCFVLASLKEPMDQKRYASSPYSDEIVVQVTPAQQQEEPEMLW

[2] = target: T2, PTPRS ECD-Fc (human, UniProt Q13332 30-1282); experiment: SPR
T2 sequence: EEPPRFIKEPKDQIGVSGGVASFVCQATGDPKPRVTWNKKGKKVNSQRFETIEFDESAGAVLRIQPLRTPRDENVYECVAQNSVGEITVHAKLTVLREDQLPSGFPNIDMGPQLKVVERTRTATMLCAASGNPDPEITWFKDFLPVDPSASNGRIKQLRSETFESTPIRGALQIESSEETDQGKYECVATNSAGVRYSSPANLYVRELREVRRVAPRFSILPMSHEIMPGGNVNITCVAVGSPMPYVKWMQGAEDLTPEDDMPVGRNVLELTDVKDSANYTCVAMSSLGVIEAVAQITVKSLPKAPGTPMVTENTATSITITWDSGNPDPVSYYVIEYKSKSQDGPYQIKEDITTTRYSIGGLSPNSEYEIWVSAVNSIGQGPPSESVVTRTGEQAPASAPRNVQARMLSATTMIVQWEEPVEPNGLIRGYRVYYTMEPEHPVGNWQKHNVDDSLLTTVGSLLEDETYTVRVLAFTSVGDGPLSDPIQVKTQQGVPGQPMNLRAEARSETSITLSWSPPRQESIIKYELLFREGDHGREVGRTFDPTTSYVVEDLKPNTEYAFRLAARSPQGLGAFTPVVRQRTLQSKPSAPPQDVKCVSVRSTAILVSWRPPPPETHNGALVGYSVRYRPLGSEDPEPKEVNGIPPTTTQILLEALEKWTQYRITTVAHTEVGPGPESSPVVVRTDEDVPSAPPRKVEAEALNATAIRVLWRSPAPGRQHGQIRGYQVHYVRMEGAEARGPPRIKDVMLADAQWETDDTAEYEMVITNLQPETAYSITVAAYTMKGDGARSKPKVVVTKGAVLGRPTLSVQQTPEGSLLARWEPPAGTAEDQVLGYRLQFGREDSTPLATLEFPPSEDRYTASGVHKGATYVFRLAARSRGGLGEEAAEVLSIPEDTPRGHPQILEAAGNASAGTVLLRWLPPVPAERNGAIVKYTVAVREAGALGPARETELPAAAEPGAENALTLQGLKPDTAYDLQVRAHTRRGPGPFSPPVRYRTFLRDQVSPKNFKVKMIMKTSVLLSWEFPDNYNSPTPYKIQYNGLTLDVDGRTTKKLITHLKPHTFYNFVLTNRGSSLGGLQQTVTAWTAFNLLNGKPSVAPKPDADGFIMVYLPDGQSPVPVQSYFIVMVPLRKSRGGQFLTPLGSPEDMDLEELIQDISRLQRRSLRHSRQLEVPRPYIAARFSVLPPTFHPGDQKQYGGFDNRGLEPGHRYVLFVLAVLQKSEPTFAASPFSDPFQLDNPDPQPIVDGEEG

[3] = target: T3, PTPRD ECD-Fc (human, UniProt P23468 21-1265); experiment: ELISA
T3 sequence: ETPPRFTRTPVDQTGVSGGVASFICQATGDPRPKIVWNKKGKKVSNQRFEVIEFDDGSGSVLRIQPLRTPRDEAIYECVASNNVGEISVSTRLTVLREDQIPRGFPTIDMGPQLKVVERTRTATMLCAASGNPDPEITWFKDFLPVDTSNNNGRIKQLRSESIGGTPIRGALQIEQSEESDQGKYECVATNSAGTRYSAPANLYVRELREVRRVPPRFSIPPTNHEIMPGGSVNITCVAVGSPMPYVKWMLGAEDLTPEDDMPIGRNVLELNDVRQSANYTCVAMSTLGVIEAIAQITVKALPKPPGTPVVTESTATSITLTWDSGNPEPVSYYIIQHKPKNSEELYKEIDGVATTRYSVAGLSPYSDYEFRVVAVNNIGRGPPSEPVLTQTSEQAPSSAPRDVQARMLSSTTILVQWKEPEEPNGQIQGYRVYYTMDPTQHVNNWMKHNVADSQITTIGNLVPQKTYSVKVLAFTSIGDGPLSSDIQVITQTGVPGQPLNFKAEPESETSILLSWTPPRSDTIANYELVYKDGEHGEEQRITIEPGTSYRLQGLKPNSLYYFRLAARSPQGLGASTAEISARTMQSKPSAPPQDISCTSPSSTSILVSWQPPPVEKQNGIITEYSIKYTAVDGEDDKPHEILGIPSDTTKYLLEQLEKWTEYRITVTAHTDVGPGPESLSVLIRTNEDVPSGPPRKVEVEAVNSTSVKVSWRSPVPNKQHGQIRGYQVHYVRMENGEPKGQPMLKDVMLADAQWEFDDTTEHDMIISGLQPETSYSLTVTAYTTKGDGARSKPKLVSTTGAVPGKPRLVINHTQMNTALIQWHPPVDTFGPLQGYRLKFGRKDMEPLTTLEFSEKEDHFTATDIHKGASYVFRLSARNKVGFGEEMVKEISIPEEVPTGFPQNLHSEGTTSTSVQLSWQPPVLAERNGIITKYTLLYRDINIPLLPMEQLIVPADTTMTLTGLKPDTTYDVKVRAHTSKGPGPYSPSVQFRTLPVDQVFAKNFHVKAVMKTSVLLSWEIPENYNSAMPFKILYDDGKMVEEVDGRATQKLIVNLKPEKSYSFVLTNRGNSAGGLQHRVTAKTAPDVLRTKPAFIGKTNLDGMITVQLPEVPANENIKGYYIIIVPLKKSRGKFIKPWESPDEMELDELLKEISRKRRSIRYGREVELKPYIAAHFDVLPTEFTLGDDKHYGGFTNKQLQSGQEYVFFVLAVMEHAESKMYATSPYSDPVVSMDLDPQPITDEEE

Measured: binding result

B1: SALM2 ECD-Fc (Fc fusion)
chain: QPCPGRCICQNVAPTLTMLCAKTGLLFVPPAIDRRVVELRLTDNFIAAVRRRDFANMTSLVHLTLSRNTIGQVAAGAFADLRALRALHLDSNRLAEVRGDQLRGLGNLRHLILGNNQIRRVESAAFDAFLSTVEDLDLSYNNLEALPWEAVGQMVNLNTLTLDHNLIDHIAEGTFVQLHKLVRLDMTSNRLHKLPPDGLFLRSQGTGPKPPTPLTVSFGGNPLHCNCELLWLRRLTREDDLETCATPEHLTDRYFWSIPEEEFLCEPPLITRQAGGRALVVEGQAVSLRCRAVGDPEPVVHWVAPDGRLLGNSSRTRVRGDGTLDVTITTLRDSGTFTCIASNAAGEATAPVEVCVVPLPLMAPPPAAPPPLTEPGSSDIATPGRPGANDSAAERRLVAAELTSNSVLIRWPAQRPVPGIRMYQVQYNSSVDDSLVYRMIPSTSQTFLVNDLAAGRAYDLCVLAVYDDGATALPATRVVGCVQFTTAGDPAPCRPLRAHFLGGTM
modifications: biotin on the AviTag (as SPR ligand)
binds: all assays above
